According to patent US20160317656A1 (published 2016):

T1: IIIb
T1 chain: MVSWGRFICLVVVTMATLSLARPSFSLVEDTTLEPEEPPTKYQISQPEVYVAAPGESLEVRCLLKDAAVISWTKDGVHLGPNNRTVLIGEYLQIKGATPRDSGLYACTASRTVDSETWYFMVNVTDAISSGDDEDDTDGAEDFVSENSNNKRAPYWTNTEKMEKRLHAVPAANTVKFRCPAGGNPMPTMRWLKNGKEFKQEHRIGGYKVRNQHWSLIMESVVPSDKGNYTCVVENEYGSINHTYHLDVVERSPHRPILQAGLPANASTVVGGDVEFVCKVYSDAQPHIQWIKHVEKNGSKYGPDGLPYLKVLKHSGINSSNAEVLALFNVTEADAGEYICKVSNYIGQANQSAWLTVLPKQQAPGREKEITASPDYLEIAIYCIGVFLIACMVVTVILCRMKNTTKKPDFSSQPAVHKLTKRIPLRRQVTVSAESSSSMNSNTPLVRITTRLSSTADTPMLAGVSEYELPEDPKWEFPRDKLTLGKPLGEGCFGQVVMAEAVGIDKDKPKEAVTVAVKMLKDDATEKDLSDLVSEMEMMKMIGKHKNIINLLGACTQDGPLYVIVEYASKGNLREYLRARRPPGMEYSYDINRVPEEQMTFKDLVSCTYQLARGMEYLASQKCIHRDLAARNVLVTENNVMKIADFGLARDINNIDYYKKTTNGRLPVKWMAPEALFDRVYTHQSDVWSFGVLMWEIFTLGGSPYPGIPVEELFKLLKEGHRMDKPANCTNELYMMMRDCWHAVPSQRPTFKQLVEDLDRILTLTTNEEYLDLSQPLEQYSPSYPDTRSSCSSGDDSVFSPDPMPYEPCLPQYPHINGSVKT


biological target: IIIc; assay: Biacore; rhFGFR2 alpha (IIIc) Fc chimera

Kd | Binder
3 nM | humanized anti-FGFR2 antibody hFR2-14_H1/L1 (antibody, V domains shown) VH: QVQLVQSGAEVKKPGASVKVSCKASGFTFSTSYMSWVRQAPGQGLEWMGWIYAGDGGTKYNQKFKGRVTLTVDKSTSTAYMELSSLRSEDTAVYYCATDGYGDWFTYWGQGTLVTVSS VL: DIQMTQSPSSLSASVGDRVTITCRASEDIYSNLAWYQQKPGKSPQLLIYDANILADGVPSRFSGSGSGTDYTLTISSLQPEDFATYYCQQYNNYPPFTFGQGTKVEIKR
6.4 nM | humanized anti-FGFR2 antibody hFR2-14_H2/L1 (antibody, V domains shown) VH: QVQLVQSGAEVKKPGASVKVSCKASGFTFSTSYMSWVRQAPGQGLEWMGWIYAGDGGTKYNQKFKGRVTLTADKSTSTAYMELSSLRSEDTAVYYCATDGYGDWFTYWGQGTLVTVSS VL: DIQMTQSPSSLSASVGDRVTITCRASEDIYSNLAWYQQKPGKSPQLLIYDANILADGVPSRFSGSGSGTDYTLTISSLQPEDFATYYCQQYNNYPPFTFGQGTKVEIKR
2.8 nM | humanized anti-FGFR2 antibody hFR2-14_H4/L1 (antibody, V domains shown) VH: QVQLVQSGAEVKKPGASVKVSCKASGFTFSTSYMSWVRQAPGPSIEWMGWIYAGDGGTKYNQKFKGRVTLTVDKSTSTAYMELSSLRSEDTAVYYCATDGYGDWFAYWGQGTLVTVSS VL: DIQMTQSPSSLSASVGDRVTITCRASEDIYSNLAWYQQKPGKSPQLLIYDANILADGVPSRFSGSGSGTDYTLTISSLQPEDFATYYCQQYNNYPPFTFGQGTKVEIKR

Biological target: T1, IIIb
Assay: Biacore; rhFGFR2 alpha (IIIb) Fc chimera

Kd | Binder
63 nM | human chimeric anti-FGFR2 antibody cFR2-14 (antibody, V domains shown) VH: QVKLLQSGAELVKPGASVKLSCKTSGFTFSTSYMSWLKQVPGPSTEWIGWIYAGDGGTKYNQKFKGKATLTVDKFSSTAYMDLSSLTSEDAAVYFCATDGYGDWFTYWGQGTLVTVSS VL: DIQMTQSPASLSASLGETVTIECRASEDIYSNLAWYQQKPGNSPQLLIYDANILADGVPSRFSGSGSGTQYSLKINSLQSEDVASYFCQQYNNYPPFTFGAGTKLELKR
12 nM | humanized anti-FGFR2 antibody hFR2-14_H1/L1 (antibody, V domains shown) VH: QVQLVQSGAEVKKPGASVKVSCKASGFTFSTSYMSWVRQAPGQGLEWMGWIYAGDGGTKYNQKFKGRVTLTVDKSTSTAYMELSSLRSEDTAVYYCATDGYGDWFTYWGQGTLVTVSS VL: DIQMTQSPSSLSASVGDRVTITCRASEDIYSNLAWYQQKPGKSPQLLIYDANILADGVPSRFSGSGSGTDYTLTISSLQPEDFATYYCQQYNNYPPFTFGQGTKVEIKR
8.7 nM | humanized anti-FGFR2 antibody hFR2-14_H2/L1 (antibody, V domains shown) VH: QVQLVQSGAEVKKPGASVKVSCKASGFTFSTSYMSWVRQAPGQGLEWMGWIYAGDGGTKYNQKFKGRVTLTADKSTSTAYMELSSLRSEDTAVYYCATDGYGDWFTYWGQGTLVTVSS VL: DIQMTQSPSSLSASVGDRVTITCRASEDIYSNLAWYQQKPGKSPQLLIYDANILADGVPSRFSGSGSGTDYTLTISSLQPEDFATYYCQQYNNYPPFTFGQGTKVEIKR
5.4 nM | humanized anti-FGFR2 antibody hFR2-14_H4/L1 (antibody, V domains shown) VH: QVQLVQSGAEVKKPGASVKVSCKASGFTFSTSYMSWVRQAPGPSIEWMGWIYAGDGGTKYNQKFKGRVTLTVDKSTSTAYMELSSLRSEDTAVYYCATDGYGDWFAYWGQGTLVTVSS VL: DIQMTQSPSSLSASVGDRVTITCRASEDIYSNLAWYQQKPGKSPQLLIYDANILADGVPSRFSGSGSGTDYTLTISSLQPEDFATYYCQQYNNYPPFTFGQGTKVEIKR

biological target: human FGFR2 IIIc variant protein (isoform 1: NP_000132), expressed on transfected cells (UniProt P21802 22-821); assay: Biacore
Sequence (P21802 22-821, change not shown): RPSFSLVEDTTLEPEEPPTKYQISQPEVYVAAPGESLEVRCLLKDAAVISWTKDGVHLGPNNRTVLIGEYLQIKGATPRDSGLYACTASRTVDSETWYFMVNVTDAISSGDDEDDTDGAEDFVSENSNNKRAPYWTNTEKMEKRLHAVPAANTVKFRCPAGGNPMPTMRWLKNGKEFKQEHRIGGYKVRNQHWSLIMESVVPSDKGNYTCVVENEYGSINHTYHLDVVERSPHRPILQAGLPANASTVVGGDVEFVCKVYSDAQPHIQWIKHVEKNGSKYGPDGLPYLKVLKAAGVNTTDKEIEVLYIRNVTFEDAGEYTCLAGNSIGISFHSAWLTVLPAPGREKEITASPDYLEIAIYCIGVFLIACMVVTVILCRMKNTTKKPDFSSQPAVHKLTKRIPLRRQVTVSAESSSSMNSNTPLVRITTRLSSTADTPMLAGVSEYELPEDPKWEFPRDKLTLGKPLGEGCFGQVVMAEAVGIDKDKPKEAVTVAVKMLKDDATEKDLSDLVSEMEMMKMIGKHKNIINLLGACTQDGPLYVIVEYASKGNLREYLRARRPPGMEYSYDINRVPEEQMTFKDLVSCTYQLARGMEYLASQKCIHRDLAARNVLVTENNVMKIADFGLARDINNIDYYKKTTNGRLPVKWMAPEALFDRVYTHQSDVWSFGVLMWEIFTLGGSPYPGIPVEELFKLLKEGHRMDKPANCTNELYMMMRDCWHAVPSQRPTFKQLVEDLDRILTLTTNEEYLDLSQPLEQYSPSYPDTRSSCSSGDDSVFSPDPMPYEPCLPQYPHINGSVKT

Kd | Binder
1.2 nM | humanized anti-FGFR2 antibody hFR2-14_H7/L1 (antibody, V domains shown) VH: QVQLVQSGAEVKKPGASVKVSCKASGFTFSTSYMSWVRQAPGPSTEWMGWIYAGDGGTKYNQKFKGRVTLTVDKSTSTAYMELSSLRSEDTAVYYCATDEYGDWFTYWGQGTLVTVSS VL: DIQMTQSPSSLSASVGDRVTITCRASEDIYSNLAWYQQKPGKSPQLLIYDANILADGVPSRFSGSGSGTDYTLTISSLQPEDFATYYCQQYNNYPPFTFGQGTKVEIKR
0.69 nM | humanized anti-FGFR2 antibody hFR2-14_H10/L1 (antibody, V domains shown) VH: QVQLVQSGAEVKKPGASVKVSCKASGFTFSTSYMSWVRQAPGPSTEWMGWIYAGDGGTKYNQKFKGRVTLTVDKSTSTAYMELSSLRSEDTAVYYCATDIYGDWFTYWGQGTLVTVSS VL: DIQMTQSPSSLSASVGDRVTITCRASEDIYSNLAWYQQKPGKSPQLLIYDANILADGVPSRFSGSGSGTDYTLTISSLQPEDFATYYCQQYNNYPPFTFGQGTKVEIKR
3.4 nM | humanized anti-FGFR2 antibody hFR2-14_H15/L1 (antibody, V domains shown) VH: QVQLVQSGAEVKKPGASVKVSCKASGFTFSTSYMSWVRQAPGPSTEWMGWIYAGDGGTKYNQKFKGRVTLTVDKSTSTAYMELSSLRSEDTAVYYCATDRYGDWFTYWGQGTLVTVSS VL: DIQMTQSPSSLSASVGDRVTITCRASEDIYSNLAWYQQKPGKSPQLLIYDANILADGVPSRFSGSGSGTDYTLTISSLQPEDFATYYCQQYNNYPPFTFGQGTKVEIKR
0.67 nM | humanized anti-FGFR2 antibody hFR2-14_H13/L1 (antibody, V domains shown) VH: QVQLVQSGAEVKKPGASVKVSCKASGFTFSTSYMSWVRQAPGPSTEWMGWIYAGDGGTKYNQKFKGRVTLTVDKSTSTAYMELSSLRSEDTAVYYCATDMYGDWFTYWGQGTLVTVSS VL: DIQMTQSPSSLSASVGDRVTITCRASEDIYSNLAWYQQKPGKSPQLLIYDANILADGVPSRFSGSGSGTDYTLTISSLQPEDFATYYCQQYNNYPPFTFGQGTKVEIKR
2.1 nM | humanized anti-FGFR2 antibody hFR2-14_H11/L1 (antibody, V domains shown) VH: QVQLVQSGAEVKKPGASVKVSCKASGFTFSTSYMSWVRQAPGPSTEWMGWIYAGDGGTKYNQKFKGRVTLTVDKSTSTAYMELSSLRSEDTAVYYCATDKYGDWFTYWGQGTLVTVSS VL: DIQMTQSPSSLSASVGDRVTITCRASEDIYSNLAWYQQKPGKSPQLLIYDANILADGVPSRFSGSGSGTDYTLTISSLQPEDFATYYCQQYNNYPPFTFGQGTKVEIKR
1.2 nM | humanized anti-FGFR2 antibody hFR2-14_H18/L1 (antibody, V domains shown) VH: QVQLVQSGAEVKKPGASVKVSCKASGFTFSTSYMSWVRQAPGPSTEWMGWIYAGDGGTKYNQKFKGRVTLTVDKSTSTAYMELSSLRSEDTAVYYCATDYYGDWFTYWGQGTLVTVSS VL: DIQMTQSPSSLSASVGDRVTITCRASEDIYSNLAWYQQKPGKSPQLLIYDANILADGVPSRFSGSGSGTDYTLTISSLQPEDFATYYCQQYNNYPPFTFGQGTKVEIKR
0.51 nM | humanized anti-FGFR2 antibody hFR2-14_H9/L1 (antibody, V domains shown) VH: QVQLVQSGAEVKKPGASVKVSCKASGFTFSTSYMSWVRQAPGPSTEWMGWIYAGDGGTKYNQKFKGRVTLTVDKSTSTAYMELSSLRSEDTAVYYCATDHYGDWFTYWGQGTLVTVSS VL: DIQMTQSPSSLSASVGDRVTITCRASEDIYSNLAWYQQKPGKSPQLLIYDANILADGVPSRFSGSGSGTDYTLTISSLQPEDFATYYCQQYNNYPPFTFGQGTKVEIKR
1.5 nM | humanized anti-FGFR2 antibody hFR2-14_H17/L1 (antibody, V domains shown) VH: QVQLVQSGAEVKKPGASVKVSCKASGFTFSTSYMSWVRQAPGPSTEWMGWIYAGDGGTKYNQKFKGRVTLTVDKSTSTAYMELSSLRSEDTAVYYCATDWYGDWFTYWGQGTLVTVSS VL: DIQMTQSPSSLSASVGDRVTITCRASEDIYSNLAWYQQKPGKSPQLLIYDANILADGVPSRFSGSGSGTDYTLTISSLQPEDFATYYCQQYNNYPPFTFGQGTKVEIKR
0.91 nM | humanized anti-FGFR2 antibody hFR2-14_H16/L1 (antibody, V domains shown) VH: QVQLVQSGAEVKKPGASVKVSCKASGFTFSTSYMSWVRQAPGPSTEWMGWIYAGDGGTKYNQKFKGRVTLTVDKSTSTAYMELSSLRSEDTAVYYCATDVYGDWFTYWGQGTLVTVSS VL: DIQMTQSPSSLSASVGDRVTITCRASEDIYSNLAWYQQKPGKSPQLLIYDANILADGVPSRFSGSGSGTDYTLTISSLQPEDFATYYCQQYNNYPPFTFGQGTKVEIKR
0.95 nM | humanized anti-FGFR2 antibody hFR2-14_H5/L1 (antibody, V domains shown) VH: QVQLVQSGAEVKKPGASVKVSCKASGFTFSTSYMSWVRQAPGPSTEWMGWIYAGDGGTKYNQKFKGRVTLTVDKSTSTAYMELSSLRSEDTAVYYCATEGYGDWFTYWGQGTLVTVSS VL: DIQMTQSPSSLSASVGDRVTITCRASEDIYSNLAWYQQKPGKSPQLLIYDANILADGVPSRFSGSGSGTDYTLTISSLQPEDFATYYCQQYNNYPPFTFGQGTKVEIKR
2.3 nM | humanized anti-FGFR2 antibody hFR2-14_H14/L1 (antibody, V domains shown) VH: QVQLVQSGAEVKKPGASVKVSCKASGFTFSTSYMSWVRQAPGPSTEWMGWIYAGDGGTKYNQKFKGRVTLTVDKSTSTAYMELSSLRSEDTAVYYCATDQYGDWFTYWGQGTLVTVSS VL: DIQMTQSPSSLSASVGDRVTITCRASEDIYSNLAWYQQKPGKSPQLLIYDANILADGVPSRFSGSGSGTDYTLTISSLQPEDFATYYCQQYNNYPPFTFGQGTKVEIKR
1.5 nM | humanized anti-FGFR2 antibody hFR2-14_H6/L1 (antibody, V domains shown) VH: QVQLVQSGAEVKKPGASVKVSCKASGFTFSTSYMSWVRQAPGPSTEWMGWIYAGDGGTKYNQKFKGRVTLTVDKSTSTAYMELSSLRSEDTAVYYCATDAYGDWFTYWGQGTLVTVSS VL: DIQMTQSPSSLSASVGDRVTITCRASEDIYSNLAWYQQKPGKSPQLLIYDANILADGVPSRFSGSGSGTDYTLTISSLQPEDFATYYCQQYNNYPPFTFGQGTKVEIKR
